Laboratory results: patent publication US20240317834A1, “COMPOSITIONS AND METHODS FOR NEUROLOGICAL DISEASES” (CODA BIOTHERAPEUTICS, INC., priority 2020, published 2024)

System: Lenti-X 293T cells
Experiment: YFP fluorescence quenching anion reporter plate reader assay of engineered receptors stimulated with acetylcholine or a non-native ligand
Format: cell-based
Conditions: for percent quench of YFP fluorescence, 30 nM TC-6683: TC-6683 30 nM; for percent quench of YFP fluorescence, 300 nM TC-6683: TC-6683 300 nM; for percent quench of YFP fluorescence, 3 uM TC-6683: TC-6683 3 uM; for percent quench of YFP fluorescence, 30 uM TC-6683: TC-6683 30 uM; for percent quench of YFP fluorescence, 100 uM TC-6683: TC-6683 100 uM; for percent quench of YFP fluorescence, 10 uM ach: acetylcholine 10 uM; for percent quench of YFP fluorescence, 100 uM ach: acetylcholine 100 uM; for percent quench of YFP fluorescence, 1 mM ach: acetylcholine 1 mM; for percent quench of YFP fluorescence, 3 mM ach: acetylcholine 3 mM
Procedure, shortened: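 YFP quench was followed for about 1 min 43 s after ligand delivered in iodide-based ECS, pH 7.2. Values are end-of-read fluorescence (last 10 s) divided by the pre-ligand baseline (15 s). Cells were LX293T, transfected with receptor DNA a day before the assay.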

B1: CODA534: engineered chimeric LGIC receptor, L131S, S172D in SEQ ID NO: 33 (protein)
chain: MRCSPGGVWLALAASLLHVSLQGEFQRKLYKELVKNYNPLERPVANDSQPLTVYFSLSLLQIMDVDEKNQVLTTNIWLQMSWTDHYLQWNVSEYPGVKTVRFPDGQIWKPDILLYNSADERFDATFHTNVSVNSSGHCQYLPPGIFKSSCPMDLKNFPMDVQTCKLKFGSWDYGGWSLDLQMQEADISGYIPNGEWDLVGIPGKRSERFYECCKEPYPDVTFTVTMRRRMGYYLIQMYIPSLLIVILSWISFWINMDAAPARVGLGITTVLTMTTQSSGSRASLPKVSYVKAIDIWMAVCLLFVFSALLEYAAVNFVSRQHKELLRFRRKRRHHKSPMLNLFQEDEAGEGRFNFSAYGMGPACLQAKDGISVKGANNSNTTNPPPAPSKSPEEMRKLFIQRAKKIDKISRIGFPMAFLIFNMFYWIIYKIVRREDVHNQ
modifications: synthetic sequence of chimeric LGIC
- YFP fluorescence quenching using CNL001 (1 nM CNL001, first column): 23.438%
- YFP fluorescence quenching using CNL001 (1 nM CNL001, second column): 28.59%
- YFP fluorescence quenching using TC-5619/Bradanicline (1 nM brd): −1.13%
- YFP fluorescence quenching using TC-5619/Bradanicline (3 nM brd): −3.83%
- YFP fluorescence quenching using CNL001 (10 nM CNL001, first column): 56.882%
- YFP fluorescence quenching using CNL001 (10 nM CNL001, second column): 56.777%
- YFP fluorescence quenching using TC-5619/Bradanicline (10 nM brd): −3.78%
- YFP fluorescence quenching using Facinicline (30 nM fac): −23.44
- YFP fluorescence quenching using CNL001 (50 nM CNL001, first column): 65.044%
- YFP fluorescence quenching using CNL001 (50 nM CNL001, second column): 67.373%
- YFP fluorescence quenching using ABT-126 (50 nM abt): −11.96%
- YFP fluorescence quenching using CNL001 (100 nM CNL001, first column): 68.666%
- YFP fluorescence quenching using CNL001 (100 nM CNL001, second column): 70.357%
- YFP fluorescence quenching using CNL002 (100 nM CNL002): 14.26%
- YFP fluorescence quenching using ABT-126 (100 nM abt): −10.72%
- YFP fluorescence quenching using AZD-0328 (100 nM azd0328): −9.32%
- YFP fluorescence quenching using TC-5619/Bradanicline (100 nM brd): −2.03%
- YFP fluorescence quenching using ABT-126 (300 nM abt): 11.65%
- YFP fluorescence quenching using AZD-0328 (300 nM azd0328): 4.94%
- YFP fluorescence quenching using Facinicline (300 nM fac): 2.75
- YFP fluorescence quenching using CNL001 (1 uM CNL001, first column): 73.019%
- YFP fluorescence quenching using CNL001 (1 uM CNL001, second column): 73.527%
- YFP fluorescence quenching using CNL002 (1 uM CNL002): 45.55%
- YFP fluorescence quenching using ABT-126 (1 uM abt): −3.06%
- YFP fluorescence quenching using TC-5619/Bradanicline (1 uM brd): 1.68%
- YFP fluorescence quenching using TC-6987 (1 uM tc6987): −20.99
- YFP fluorescence quenching using Facinicline (10 uM fac): 69.71
- YFP fluorescence quenching using TC-6987 (10 uM tc6987): −27.62
- YFP fluorescence quenching using CNL002 (30 uM CNL002): 64.93%
- YFP fluorescence quenching using AZD-0328 (30 uM azd0328): 60.61%
- YFP fluorescence quenching using Facinicline (30 uM fac): 61.44
- YFP fluorescence quenching using TC-6987 (500 uM tc6987): −24.22
- percent quench of YFP fluorescence, 30 nM TC-6683: −22.464%
- percent quench of YFP fluorescence, 300 nM TC-6683: −23.976%
- percent quench of YFP fluorescence, 3 uM TC-6683: −24.897%
- percent quench of YFP fluorescence, 30 uM TC-6683: −20.474%
- percent quench of YFP fluorescence, 100 uM TC-6683: −22.253%
- percent quench of YFP fluorescence, 10 uM ach: −11.3%
- percent quench of YFP fluorescence, 100 uM ach: −27.53%
- percent quench of YFP fluorescence, 1 mM ach: 2.84%
- percent quench of YFP fluorescence, 3 mM ach: 14.65%

B2: CODA535: engineered chimeric LGIC receptor, L131T, S172D in SEQ ID NO: 33 (protein)
chain: MRCSPGGVWLALAASLLHVSLQGEFQRKLYKELVKNYNPLERPVANDSQPLTVYFSLSLLQIMDVDEKNQVLTTNIWLQMSWTDHYLQWNVSEYPGVKTVRFPDGQIWKPDILLYNSADERFDATFHTNVTVNSSGHCQYLPPGIFKSSCPMDLKNFPMDVQTCKLKFGSWDYGGWSLDLQMQEADISGYIPNGEWDLVGIPGKRSERFYECCKEPYPDVTFTVTMRRRMGYYLIQMYIPSLLIVILSWISFWINMDAAPARVGLGITTVLTMTTQSSGSRASLPKVSYVKAIDIWMAVCLLFVFSALLEYAAVNFVSRQHKELLRFRRKRRHHKSPMLNLFQEDEAGEGRFNFSAYGMGPACLQAKDGISVKGANNSNTTNPPPAPSKSPEEMRKLFIQRAKKIDKISRIGFPMAFLIFNMFYWIIYKIVRREDVHNQ
modifications: synthetic sequence of chimeric LGIC
- YFP fluorescence quenching using CNL001 (1 nM CNL001, first column): 8.736%
- YFP fluorescence quenching using CNL001 (1 nM CNL001, second column): 24.572%
- YFP fluorescence quenching using CNL001 (10 nM CNL001, first column): 60.552%
- YFP fluorescence quenching using CNL001 (10 nM CNL001, second column): 63.09%
- YFP fluorescence quenching using Facinicline (30 nM fac): −21.36
- YFP fluorescence quenching using CNL001 (50 nM CNL001, first column): 73.242%
- YFP fluorescence quenching using CNL001 (50 nM CNL001, second column): 73.889%
- YFP fluorescence quenching using ABT-126 (50 nM abt): −11.09%
- YFP fluorescence quenching using CNL001 (100 nM CNL001, first column): 76.147%
- YFP fluorescence quenching using CNL001 (100 nM CNL001, second column): 76.21%
- YFP fluorescence quenching using CNL002 (100 nM CNL002): 1.23%
- YFP fluorescence quenching using ABT-126 (100 nM abt): −10.37%
- YFP fluorescence quenching using AZD-0328 (100 nM azd0328): −7.02%
- YFP fluorescence quenching using ABT-126 (300 nM abt): −4%
- YFP fluorescence quenching using AZD-0328 (300 nM azd0328): −0.48%
- YFP fluorescence quenching using Facinicline (300 nM fac): 4.17
- YFP fluorescence quenching using CNL001 (1 uM CNL001, first column): 78.988%
- YFP fluorescence quenching using CNL001 (1 uM CNL001, second column): 78.818%
- YFP fluorescence quenching using CNL002 (1 uM CNL002): 35.77%
- YFP fluorescence quenching using ABT-126 (1 uM abt): 4.05%
- YFP fluorescence quenching using TC-6987 (1 uM tc6987): −21.8
- YFP fluorescence quenching using TC-6987 (10 uM tc6987): −27.08
- YFP fluorescence quenching using CNL002 (30 uM CNL002): 68.29%
- YFP fluorescence quenching using AZD-0328 (30 uM azd0328): 70.16%
- YFP fluorescence quenching using Facinicline (30 uM fac): 65.94
- YFP fluorescence quenching using TC-6987 (500 uM tc6987): −21.56
- percent quench of YFP fluorescence, 30 nM TC-6683: −29.362%
- percent quench of YFP fluorescence, 300 nM TC-6683: −28.954%
- percent quench of YFP fluorescence, 3 uM TC-6683: −23.708%
- percent quench of YFP fluorescence, 30 uM TC-6683: −23.431%
- percent quench of YFP fluorescence, 100 uM TC-6683: −18.324%
- percent quench of YFP fluorescence, 10 uM ach: −12.24%
- percent quench of YFP fluorescence, 100 uM ach: −26.23%
- percent quench of YFP fluorescence, 1 mM ach: −1.16%
- percent quench of YFP fluorescence, 3 mM ach: 2.97%

B3: CODA805: engineered chimeric LGIC receptor, Y115D, S170T in SEQ ID NO: 33 (protein)
chain: MRCSPGGVWLALAASLLHVSLQGEFQRKLYKELVKNYNPLERPVANDSQPLTVYFSLSLLQIMDVDEKNQVLTTNIWLQMSWTDHYLQWNVSEYPGVKTVRFPDGQIWKPDILLDNSADERFDATFHTNVLVNSSGHCQYLPPGIFKSSCPMDLKNFPMDVQTCKLKFGTWSYGGWSLDLQMQEADISGYIPNGEWDLVGIPGKRSERFYECCKEPYPDVTFTVTMRRRMGYYLIQMYIPSLLIVILSWISFWINMDAAPARVGLGITTVLTMTTQSSGSRASLPKVSYVKAIDIWMAVCLLFVFSALLEYAAVNFVSRQHKELLRFRRKRRHHKSPMLNLFQEDEAGEGRFNFSAYGMGPACLQAKDGISVKGANNSNTTNPPPAPSKSPEEMRKLFIQRAKKIDKISRIGFPMAFLIFNMFYWIIYKIVRREDVHNQ
modifications: synthetic sequence of chimeric LGIC
- YFP fluorescence quenching using CNL001 (1 nM CNL001, first column): −10.729%
- YFP fluorescence quenching using CNL001 (1 nM CNL001, second column): −15.278%
- YFP fluorescence quenching using TC-5619/Bradanicline (1 nM brd): −9.78%
- YFP fluorescence quenching using TC-5619/Bradanicline (3 nM brd): −12.06%
- YFP fluorescence quenching using CNL001 (10 nM CNL001, first column): −20.403%
- YFP fluorescence quenching using CNL001 (10 nM CNL001, second column): −14.905%
- YFP fluorescence quenching using TC-5619/Bradanicline (10 nM brd): −9.02%
- YFP fluorescence quenching using TC-5619/Bradanicline (30 nM brd): −16.3%
- YFP fluorescence quenching using Facinicline (30 nM fac): 38.08
- YFP fluorescence quenching using CNL001 (50 nM CNL001, first column): −14.303%
- YFP fluorescence quenching using CNL001 (50 nM CNL001, second column): −15.741%
- YFP fluorescence quenching using ABT-126 (50 nM abt): −11.83%
- YFP fluorescence quenching using CNL001 (100 nM CNL001, first column): −12.637%
- YFP fluorescence quenching using CNL001 (100 nM CNL001, second column): −10.606%
- YFP fluorescence quenching using CNL002 (100 nM CNL002): −18.17%
- YFP fluorescence quenching using ABT-126 (100 nM abt): −11.5%
- YFP fluorescence quenching using AZD-0328 (100 nM azd0328): −0.71%
- YFP fluorescence quenching using TC-5619/Bradanicline (100 nM brd): −7.44%
- YFP fluorescence quenching using Facinicline (100 nM fac): −14.37
- YFP fluorescence quenching using ABT-126 (300 nM abt): −8.01%
- YFP fluorescence quenching using AZD-0328 (300 nM azd0328): −1.73%
- YFP fluorescence quenching using TC-5619/Bradanicline (300 nM brd): −10.93%
- YFP fluorescence quenching using Facinicline (300 nM fac): 19.41
- YFP fluorescence quenching using CNL001 (1 uM CNL001, first column): −13.535%
- YFP fluorescence quenching using CNL001 (1 uM CNL001, second column): −11.335%
- YFP fluorescence quenching using CNL002 (1 uM CNL002): −15.2%
- YFP fluorescence quenching using ABT-126 (1 uM abt): −9.34%
- YFP fluorescence quenching using TC-5619/Bradanicline (1 uM brd): −4.55%
- YFP fluorescence quenching using TC-6987 (1 uM tc6987): 31.9
- YFP fluorescence quenching using Facinicline (10 uM fac): 67.33
- YFP fluorescence quenching using TC-6987 (10 uM tc6987): 25.54
- YFP fluorescence quenching using CNL002 (30 uM CNL002): −14%
- YFP fluorescence quenching using AZD-0328 (30 uM azd0328): 47.39%
- YFP fluorescence quenching using Facinicline (30 uM fac): 79.67
- YFP fluorescence quenching using TC-6987 (500 uM tc6987): 21.13
- percent quench of YFP fluorescence, 10 uM ach: −0.46%
- percent quench of YFP fluorescence, 100 uM ach: −4.93%
- percent quench of YFP fluorescence, 1 mM ach: −11.18%
- percent quench of YFP fluorescence, 3 mM ach: −3.53%
